Data taken from IntAct's records for PubMed 36931259.

B1: 14-3-3 protein sigma (Homo sapiens), P31947 (parent)
chain: MERASLIQKAKLAEQAERYEDMAAFMKGAVEKGEELSCEERNLLSVAYKNVVGGQRAAWRVLSSIEQKSNEEGSEEKGPEVREYREKVETELQGVCDTVLGLLDSHLIKEAGDAESRVFYLKMKGDYYRYLAEVATGDDKKRIIDSARSAYQEAMDISKKEMPPTNPIRLGLALNFSVFHYEIANSPEEAISLAKTTFDEAMADLHTLSEDSYKDSTLIMQLLRDNLTLWTADNAGEEGGEAPQEPQS
partner: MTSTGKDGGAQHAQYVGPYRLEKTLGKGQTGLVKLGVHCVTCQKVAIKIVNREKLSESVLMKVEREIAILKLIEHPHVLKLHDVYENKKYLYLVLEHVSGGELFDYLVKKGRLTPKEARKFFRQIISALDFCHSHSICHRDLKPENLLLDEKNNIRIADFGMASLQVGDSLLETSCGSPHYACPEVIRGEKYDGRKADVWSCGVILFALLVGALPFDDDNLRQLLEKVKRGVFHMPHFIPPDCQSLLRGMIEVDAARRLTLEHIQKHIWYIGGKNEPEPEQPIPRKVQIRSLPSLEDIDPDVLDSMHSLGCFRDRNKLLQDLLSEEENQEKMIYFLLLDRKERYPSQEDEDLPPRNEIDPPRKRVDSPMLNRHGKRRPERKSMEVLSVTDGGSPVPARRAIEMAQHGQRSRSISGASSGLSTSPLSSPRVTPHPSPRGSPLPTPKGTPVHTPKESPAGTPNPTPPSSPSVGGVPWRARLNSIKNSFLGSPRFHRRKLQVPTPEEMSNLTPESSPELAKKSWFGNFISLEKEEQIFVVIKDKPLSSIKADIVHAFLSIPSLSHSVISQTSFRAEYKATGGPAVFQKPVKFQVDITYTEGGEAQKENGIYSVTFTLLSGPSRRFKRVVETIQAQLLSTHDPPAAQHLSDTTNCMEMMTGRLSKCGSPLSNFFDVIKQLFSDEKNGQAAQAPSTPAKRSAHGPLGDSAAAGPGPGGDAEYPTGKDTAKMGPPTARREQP
B2: 14-3-3 protein sigma (Homo sapiens), P31947 (parent)
chain: B1 chain
partner: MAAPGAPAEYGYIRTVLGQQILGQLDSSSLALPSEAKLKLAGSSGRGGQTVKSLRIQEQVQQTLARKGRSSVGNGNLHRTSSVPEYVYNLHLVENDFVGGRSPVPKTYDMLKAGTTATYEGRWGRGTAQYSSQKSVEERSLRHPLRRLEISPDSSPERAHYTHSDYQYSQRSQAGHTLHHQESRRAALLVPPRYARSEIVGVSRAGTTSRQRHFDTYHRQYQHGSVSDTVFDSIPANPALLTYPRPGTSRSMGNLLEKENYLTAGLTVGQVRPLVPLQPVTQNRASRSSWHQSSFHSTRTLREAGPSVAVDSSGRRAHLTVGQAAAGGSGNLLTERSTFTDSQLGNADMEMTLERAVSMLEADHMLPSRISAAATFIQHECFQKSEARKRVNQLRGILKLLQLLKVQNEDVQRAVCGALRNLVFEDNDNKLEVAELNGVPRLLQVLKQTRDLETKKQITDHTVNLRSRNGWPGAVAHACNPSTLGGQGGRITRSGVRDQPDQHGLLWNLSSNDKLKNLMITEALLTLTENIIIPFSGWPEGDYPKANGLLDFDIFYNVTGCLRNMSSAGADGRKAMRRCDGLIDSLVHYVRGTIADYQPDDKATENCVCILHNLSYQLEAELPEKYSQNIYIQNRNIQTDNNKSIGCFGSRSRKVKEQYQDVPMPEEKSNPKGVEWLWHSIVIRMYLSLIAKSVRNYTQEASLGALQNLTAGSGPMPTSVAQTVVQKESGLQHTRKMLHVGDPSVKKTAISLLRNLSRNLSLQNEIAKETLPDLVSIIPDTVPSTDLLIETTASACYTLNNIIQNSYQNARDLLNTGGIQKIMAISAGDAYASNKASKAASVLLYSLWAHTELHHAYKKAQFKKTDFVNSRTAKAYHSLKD
B3: 14-3-3 protein sigma (Homo sapiens), P31947 (parent)
chain: B1 chain
partner: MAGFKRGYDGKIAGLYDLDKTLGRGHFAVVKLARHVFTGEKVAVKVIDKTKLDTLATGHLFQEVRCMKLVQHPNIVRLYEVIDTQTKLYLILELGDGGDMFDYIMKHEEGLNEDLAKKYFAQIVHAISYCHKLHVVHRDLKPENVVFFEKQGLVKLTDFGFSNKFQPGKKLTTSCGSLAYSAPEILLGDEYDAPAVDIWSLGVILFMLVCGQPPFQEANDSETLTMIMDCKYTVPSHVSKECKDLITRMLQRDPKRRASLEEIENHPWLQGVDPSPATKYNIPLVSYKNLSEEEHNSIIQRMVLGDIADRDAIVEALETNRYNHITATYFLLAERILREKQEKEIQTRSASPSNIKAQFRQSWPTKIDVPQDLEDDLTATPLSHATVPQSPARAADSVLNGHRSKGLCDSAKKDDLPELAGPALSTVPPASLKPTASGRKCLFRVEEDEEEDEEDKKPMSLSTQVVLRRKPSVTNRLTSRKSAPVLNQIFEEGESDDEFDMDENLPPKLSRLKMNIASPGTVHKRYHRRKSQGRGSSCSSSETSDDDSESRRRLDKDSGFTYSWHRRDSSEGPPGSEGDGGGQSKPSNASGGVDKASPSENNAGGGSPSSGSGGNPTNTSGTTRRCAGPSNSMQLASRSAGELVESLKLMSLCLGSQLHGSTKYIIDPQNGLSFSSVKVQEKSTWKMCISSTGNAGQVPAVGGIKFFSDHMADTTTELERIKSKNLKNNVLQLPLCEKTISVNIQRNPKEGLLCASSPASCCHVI
B4: 14-3-3 protein sigma (Homo sapiens), P31947 (parent)
chain: B1 chain
partner: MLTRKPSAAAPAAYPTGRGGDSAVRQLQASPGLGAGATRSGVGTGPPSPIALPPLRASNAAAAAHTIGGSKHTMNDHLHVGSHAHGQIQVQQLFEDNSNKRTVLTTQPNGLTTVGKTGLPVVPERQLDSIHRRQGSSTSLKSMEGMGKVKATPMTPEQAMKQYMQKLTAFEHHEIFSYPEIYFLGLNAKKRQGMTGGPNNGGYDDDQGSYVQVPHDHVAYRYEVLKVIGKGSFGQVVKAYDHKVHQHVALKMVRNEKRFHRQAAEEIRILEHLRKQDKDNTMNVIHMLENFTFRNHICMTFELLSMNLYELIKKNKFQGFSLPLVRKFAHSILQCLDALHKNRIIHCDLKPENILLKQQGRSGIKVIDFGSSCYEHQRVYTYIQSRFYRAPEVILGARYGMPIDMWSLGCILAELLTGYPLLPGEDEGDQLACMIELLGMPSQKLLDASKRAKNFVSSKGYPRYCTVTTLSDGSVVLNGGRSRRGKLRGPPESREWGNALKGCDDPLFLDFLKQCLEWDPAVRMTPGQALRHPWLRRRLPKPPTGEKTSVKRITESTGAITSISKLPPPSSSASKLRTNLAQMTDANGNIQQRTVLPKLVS
B5: Protein Smaug homolog 1 (Homo sapiens), Q9UPU9 (parent)
chain: MMFRDQVGVLAGWFKGWNECEQTVALLSLLKRVSQTQARFLQLCLEHSLADCAELHVLEREANSPGIINQWQQESKDKVISLLLTHLPLLKPGNLDAKVEYMKLLPKILAHSIEHNQHIEESRQLLSYALIHPATSLEDRSALAMWLNHLEDRTSTSFGGQNRGRSDSVDYGQTHYYHQRQNSDDKLNGWQNSRDSGICINASNWQDKSMGCENGHVPLYSSSSVPTTINTIGTSTSTILSGQAHHSPLKRSVSLTPPMNVPNQPLGHGWMSHEDLRARGPQCLPSDHAPLSPQSSVASSGSGGSEHLEDQTTARNTFQEEGSGMKDVPAWLKSLRLHKYAALFSQMTYEEMMALTECQLEAQNVTKGARHKIVISIQKLKERQNLLKSLERDIIEGGSLRIPLQELHQMILTPIKAYSSPSTTPEARRREPQAPRQPSLMGPESQSPDCKDGAAATGATATPSAGASGGLQPHQLSSCDGELAVAPLPEGDLPGQFTRVMGKVCTQLLVSRPDEENISSYLQLIDKCLIHEAFTETQKKRLLSWKQQVQKLFRSFPRKTLLDISGYRQQRNRGFGQSNSLPTAGSVGGGMGRRNPRQYQIPSRNVPSARLGLLGTSGFVSSNQRNTTATPTIMKQGRQNLWFANPGGSNSMPSRTHSSVQRTRSLPVHTSPQNMLMFQQPEFQLPVTEPDINNRLESLCLSMTEHALGDGVDRTSTI
partner: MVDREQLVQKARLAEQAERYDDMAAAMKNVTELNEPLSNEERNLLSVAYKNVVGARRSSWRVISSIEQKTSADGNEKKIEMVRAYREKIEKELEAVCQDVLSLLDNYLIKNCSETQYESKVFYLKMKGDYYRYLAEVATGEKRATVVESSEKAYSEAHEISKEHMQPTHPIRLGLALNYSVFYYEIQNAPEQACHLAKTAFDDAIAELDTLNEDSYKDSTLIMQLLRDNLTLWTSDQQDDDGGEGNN

Variants of: B1
Settings: with brsk2_human BRSK2, Q8IWQ3

Variant	effect of a mutation on the interaction
K49E;R56E;V178D	decreasing interaction strength

Variants of: B2
Settings: with pkp2_human PKP2, Q99959

Variant	effect of a mutation on the interaction
K49E;R56E;V178D	decreasing interaction strength

Variants of: B3
Settings: with snrk_human SNRK

Variant	effect of a mutation on the interaction
K49E;R56E;V178D	decreasing interaction strength

Variants of: B4
Settings: with dyrk2_human DYRK2, Q92630

Variant	effect of a mutation on the interaction
K49E;R56E;V178D	decreasing interaction strength

Variants of: B5
Settings: with 1433g_human YWHAG

Variant	effect of a mutation on the interaction
S168A;S183A;S254A;S580A;S665A;T717A	decreasing interaction strength
